Legend:
[1] = target: T1, EGFR C-tail Y1016/Y1138 980-1210 (Homo sapiens, UniProt P00533); assay: BLI
T1 chain: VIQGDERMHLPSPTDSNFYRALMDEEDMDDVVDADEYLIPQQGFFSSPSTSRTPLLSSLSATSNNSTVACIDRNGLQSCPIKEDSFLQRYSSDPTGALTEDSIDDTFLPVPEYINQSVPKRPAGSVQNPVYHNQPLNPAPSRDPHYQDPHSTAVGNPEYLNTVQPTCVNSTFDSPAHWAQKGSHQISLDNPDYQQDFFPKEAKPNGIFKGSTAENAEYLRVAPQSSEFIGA

[2] = target: T2, EGFR C-tail Y1016/Y1092 980-1210 (Homo sapiens, UniProt P00533); assay: BLI
T2 chain: T1 chain

B1: PLCγ1 tandem SH2 N-SH2-C-SH2 (protein)
chain: WFHGKLGAGRDGRHIAERLLTEYCIETGAPDGSFLVRESETFVGDYTLSFWRNGKVQHCRIHSRQDAGTPKFFLTDNLVFDSLYDLITHYQQVPLRCNEFEMRLSEPVPQTNAHESKEWYHASLTRAQAEHMLMRVPRDGAFLVRKRNEPNSYAISFRAEGKIKHCRVQQEGQTVMLGNSEFDSLVDLISYYEKHPLYRKMKLRYPI
For B1, the Kd [1] was 63.4 nM and the Kd [2] was 429 nM.
